The values below come from patent publication US20210330692, “CCR7 APTAMERS AND USES THEREOF” (CITY OF HOPE, published 2021).

This series has as its target CCR7 (UniProt P32248 P32248:25-378). Put plainly: EMSA; + in gel shift assay. In general terms: In EMSA bound probe runs differently from free probe, usually more slowly.

Chain of CCR7 (P32248 25-378, one chain of several): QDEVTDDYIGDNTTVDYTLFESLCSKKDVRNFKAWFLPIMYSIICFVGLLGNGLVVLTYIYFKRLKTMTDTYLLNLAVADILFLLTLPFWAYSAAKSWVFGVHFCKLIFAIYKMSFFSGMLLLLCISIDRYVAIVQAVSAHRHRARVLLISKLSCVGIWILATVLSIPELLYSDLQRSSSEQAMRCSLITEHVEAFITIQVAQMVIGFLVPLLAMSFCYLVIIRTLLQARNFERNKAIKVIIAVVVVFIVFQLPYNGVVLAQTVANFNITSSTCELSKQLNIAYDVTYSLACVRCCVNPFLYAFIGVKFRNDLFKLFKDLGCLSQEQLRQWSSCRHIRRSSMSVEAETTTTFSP

B1: C-6 (ssRNA)
RNA: GGGAGGACGAUGCGGUCCAUCGUCUCUUAUCGUCUCUUGUCGCGCCAGACGACUCGCCCGA
Regarding B1, the binding result is recorded as “binds”.
